Reference: patent US20180362587A1, “Compositions and Methods for Inhibiting CBP80 Binding to PGC1 Family of Co-Activators” (University of Rochester, priority 2015, published 2018)
Primed or numbered codes have the meaning given here. * marks the point of attachment. Biotin = O=C1N[C@H]2[C@H](CS[C@H]2CCCCC(=O)*)N1; FITC′ = fluorescein-isothiocyanate; Ahx = NCCCCCC(=O)O

Experiments:
FLAG-PGC1α WT = biological target: T1, FLAG-PGC1α WT (human, UniProt Q9UBK2 1-798); assay: anti-FLAG IP from C2C12 knock-down cells, western blot
T1 construct: also called FLAG-tagged human (h) PGC1α wild-type; FLAG-PCG1α WT; not shown: FLAG tag
T1 sequence (looked up): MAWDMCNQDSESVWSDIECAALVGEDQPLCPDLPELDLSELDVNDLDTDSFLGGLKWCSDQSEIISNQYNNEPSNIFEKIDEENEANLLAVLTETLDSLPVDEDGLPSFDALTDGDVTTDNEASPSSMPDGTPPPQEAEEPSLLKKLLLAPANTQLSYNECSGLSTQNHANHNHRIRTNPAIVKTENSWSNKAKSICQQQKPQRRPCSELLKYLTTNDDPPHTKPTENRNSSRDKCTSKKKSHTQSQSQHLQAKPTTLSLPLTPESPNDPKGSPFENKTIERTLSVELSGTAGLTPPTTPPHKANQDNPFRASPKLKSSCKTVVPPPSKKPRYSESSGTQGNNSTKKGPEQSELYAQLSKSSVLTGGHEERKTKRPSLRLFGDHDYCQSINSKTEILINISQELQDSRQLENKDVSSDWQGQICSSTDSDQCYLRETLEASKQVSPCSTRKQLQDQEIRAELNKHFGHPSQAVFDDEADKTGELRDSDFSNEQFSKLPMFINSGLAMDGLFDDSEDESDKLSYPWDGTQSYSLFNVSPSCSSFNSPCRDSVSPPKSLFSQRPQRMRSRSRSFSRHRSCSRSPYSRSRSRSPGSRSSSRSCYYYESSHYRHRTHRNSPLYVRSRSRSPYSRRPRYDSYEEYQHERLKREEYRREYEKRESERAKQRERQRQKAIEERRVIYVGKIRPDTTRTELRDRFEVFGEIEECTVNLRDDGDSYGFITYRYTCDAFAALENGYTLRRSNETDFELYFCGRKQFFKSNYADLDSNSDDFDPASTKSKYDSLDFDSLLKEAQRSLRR

CBP80/CBP20 complex [1] = biological target: T2, CBP80/CBP20 complex (human, UniProt Q09161 20-790; P52298 1-156, limits assumed); assay: FP competition assay, alanine scan
T2 construct: Used in the fluorescence polarization assays; In the crystal it also carried the cap analogue (m7GpppG / m7GpppA); also called CBC complex; CBC
T2 sequence (looked up) 1: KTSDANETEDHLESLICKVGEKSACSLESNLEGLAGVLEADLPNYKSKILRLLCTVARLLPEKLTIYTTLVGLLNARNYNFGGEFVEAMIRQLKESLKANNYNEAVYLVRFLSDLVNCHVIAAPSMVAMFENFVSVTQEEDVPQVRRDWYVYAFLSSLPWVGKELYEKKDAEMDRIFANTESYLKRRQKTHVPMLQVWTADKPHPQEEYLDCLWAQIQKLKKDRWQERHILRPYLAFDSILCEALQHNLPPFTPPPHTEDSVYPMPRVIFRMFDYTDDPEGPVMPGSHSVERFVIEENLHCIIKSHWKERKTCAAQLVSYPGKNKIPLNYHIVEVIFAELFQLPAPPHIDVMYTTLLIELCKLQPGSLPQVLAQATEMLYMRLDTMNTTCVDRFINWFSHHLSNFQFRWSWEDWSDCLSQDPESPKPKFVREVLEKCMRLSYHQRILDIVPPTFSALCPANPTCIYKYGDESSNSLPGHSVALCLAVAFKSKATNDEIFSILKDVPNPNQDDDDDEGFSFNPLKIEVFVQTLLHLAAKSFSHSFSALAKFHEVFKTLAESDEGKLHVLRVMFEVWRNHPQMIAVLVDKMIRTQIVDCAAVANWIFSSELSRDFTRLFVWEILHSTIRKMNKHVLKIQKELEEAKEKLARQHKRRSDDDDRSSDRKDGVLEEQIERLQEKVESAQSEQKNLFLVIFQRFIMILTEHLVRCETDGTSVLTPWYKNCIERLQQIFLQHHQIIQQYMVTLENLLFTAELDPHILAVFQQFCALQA
T2 sequence (looked up) 2: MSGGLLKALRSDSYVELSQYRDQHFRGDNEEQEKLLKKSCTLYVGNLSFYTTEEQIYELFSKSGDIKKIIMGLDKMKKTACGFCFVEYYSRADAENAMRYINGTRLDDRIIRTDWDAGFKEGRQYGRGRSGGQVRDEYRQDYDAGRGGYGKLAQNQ
Experimental: To examine the tolerance of this compound to sequence modification, an alanine-scanning library was synthesized. This library of PGC1β mimics consisted of 11 linear peptides (PGC1β-2A through PGC1β-12A; Table 3), in which each amino acid residue of the parent PGC1β-wt peptide was replaced with alanine (or with glycine, when the parent residue is alanine). The peptides were tested for their ability to inhibit the CBC-PGC1β interaction using the aforementioned fluorescence polarization-based competition assay. […] These compounds include PGC1β mimics containing non-canonical amino acids such as 2-aminoisobutyric acid (Aib) and […]-crotonyl-2,4-diaminobutyric acid (CrtDab). Aib is an α,α-disubstituted amino acid which is well known for its ability to stabilize α-helical peptide structures as well as increase peptide stability against proteolysis.
(§1) IC₅₀ values were determined by adapting the fluorescence polarization assay described above to a competition format. 1 μM of the FITC-labeled PGC1β peptide (FITC-Ahx-[…]-NH₂) was incubated with 30 μM of the CBP80-CBP20 complex in HEPES Buffer (10 mM HEPES [pH 7.5], 50 mM NaCl and 5 mM 2-mercaptoethanol).

CBP80/CBP20 complex [2] = biological target: T2, CBP80/CBP20 complex; assay: FP competition assay; 1 µM FITC-Ahx-…-NH2 as competitor, 30 µM CBP80/CBP20 complex
Experimental: (§2) The relative activity of the PGC1β mimics toward disrupting the interaction between CBC and the fluorescein-conjugated PGC1β-derived peptide was measured in a competition assay. Briefly, a fixed amount of CBC and fluorescein-conjugated PGC1β-derived peptide are incubated with increasing amounts of the PGC1β mimic (FIG. 11A). From the resulting dose-dependent inhibition curves, the in vitro CBC inhibitory activity of the PGC1β mimic compound is measured based on their respective half-maximal inhibitory concentration (IC₅₀) (FIG. 5B). Using this assay, various PGC1β mimics were evaluated for their relative ability to target CBC and disrupt its binding interaction with PGC1β. […] Short peptides derived from the C-terminal domain of PGC1β and PRC proteins, two other members of the PGC1 family of transcriptional coactivators, were also to bind CBC and inhibits its interaction with the fluorescein-labeled PGC1β peptide with IC₅₀ values in the low micromolar range.
^aAc = acetyl; Biot = biotin; Ahx = 6-aminohexanoic acid; Aib = 2-aminoisobutyric acid; CrtDab = N^γ-crotonyl-2,4-diaminobutyric acid. C-terminal ‘-NH₂’ refers to amidated C-terminal end of the peptide. ^bIC₅₀ was determined using fluorescence polarization based competition assay in the presence of 1 μM of FITC-labeled PGC1β (FITC-Ahx-[…]-NH₂, where FITC is fluorescein-isothiocyanate) and 30 μM of the CBP80/CBP20 complex in HEPES buffer (10 mM HEPES, 50 mM NaCl, 5 mM BME, pH 7.5).
as §1

CBP80/CBP20 complex [3] = biological target: T2, CBP80/CBP20 complex; assay: fluorescence polarization; 1 µM FITC peptide titrated with CBC complex (1-80 µM), 1:1 model
Experimental: In order to develop a first set of PGC1β mimics, a series of linear peptides encompassing the CBP80-binding domain of PGC1β were designed and synthesized (Table 3). The ability of these peptides to bind to CBP80 in complex with CBP20 (also referred herein as ‘CBC complex’ or simply ‘CBC’) was assessed using a fluorescence polarization assay in the presence of fluorescein-conjugated PGC1β-derived peptide (FITC-Ahx-[…]-NH₂ (SEQ ID NO:XX), where FITC is fluorescein-isothiocyanate and Ahx is 6-aminohexanoic acid).
The assay was performed in a 15-μl scale in a low-volume 384-well black plate on a Tecan M1000 Plate Reader using 470/20 nm excitation and 520/20 nm emission filters. All proteins and peptides were dissolved and diluted in HEPES buffer (50 mM NaCl, 10 mM HEPES […]). Fluorescently labelled PGC1β peptide (FITC-Ahx-[…]-NH₂) was used at 1 μM final concentration, and fluorescence polarization data were recorded at increasing concentration of the CBC complex (1-80 μM) after a 10-min incubation. The resulting concentration-dependent FP curve was fit to a 1:1 binding model to yield dissociation constant (KD) values. Measurements were performed at least in duplicates.

CBP80/CBP20 complex [4] = biological target: T2, CBP80/CBP20 complex; assay: FP competition assay; FITC-labeled PGC1β peptide as competitor
Experimental: as §2
IC₅₀ values were determined by adapting the fluorescence polarization assay described above to a competition format. […] Half-maximal inhibitory concentration (IC₅₀) values were calculated from the resulting inhibition curves as given by dose-dependent decrease in the fluorescence polarization signal. […]

B1: endogenous CBP80 of mouse C2C12 myoblasts (other, UniProt Q3UYV9 1-790, looked up)
chain: MSRRRHSYENDGGQPHKRRKTSDANETEDHLESLICKVGEKSACSLESNLEGLAGVLEADLPNYKSKILRLLCTVARLLPEKLTIYTTLVGLLNARNYNFGGEFVEAMIRQLKESLKANNYNEAVYLVRFLSDLVNCHVIAAPSMVAMFENFVSVTQEEDVPQVRRDWYVYAFLSSLPWVGKELYEKKDAEMDRIFSTTESYLKRRQKTHVPMLQVWTADKPHPQEEYLDCLWAQIQKLKKDRWQERHILRPYLAFDSILCEALQHNLPPFTPPPHTEDSVYPMPRVIFRMFDYTDDPEGPVMPGSHSVERFVIEENLHCIIKSYWKERKTCAAQLVSYPGKNKIPLNYHIVEVIFAELFQLPAPPHIDVMYTTLLIELCKLQPGSLPQVLAQATEMLYMRLDTMSTTCVDRFINWFSHHLSNFQFRWSWEDWSDCLTQDLESPKPKFVREVLEKCMRLSYHQHILDIVPPTFSALCPANPTCIYKYGDESSNSLPGHSVALCLSVAFKSKATNDEIFSILKDVPNPNQVDDDDEGFRFNPLKIEVFVQTLLHLAAKSFSHSFSALAKFHEVFKTLAESDKGKLHVLRVMFEVWRNHPQMIAVLVDKMIRTQIVDCAAVANWIFSSELSRDFTRLFVWEILHSTIRKMNKHVLKIQKELEEAKEKLARQHKRRSDDDDRSSDRKDGALEEQIERLQEKVEAAQSEQKNLFLVIFQRFIMILTEHLVRCETDGTSILTPWYKNCIERLQQIFLQHHQTIQQYMVTLENLLFTAELDPHILAVFQQFCALQA
- binding result (FLAG-PGC1α WT): binds

B2: PGC1β-9A (Ac-MDFDSLLKAAQQS-NH2) (peptide)
peptide: Ac-MDFDSLLKAAQQS-NH2
- fold improvement of inhibitory activity against PGC1β-wt (CBP80/CBP20 complex [1]): ≤ 2 fold
- IC50 (CBP80/CBP20 complex [2]): 33 µM

B3: FITC-Ahx-AMDFDSLLKEAQQSLH-NH2 (peptide)
peptide: {FITC′-Ahx}-AMDFDSLLKEAQQSLH-NH2
notes: Tracer of the FP assays; also called fluorescein-conjugated PGC1β-derived peptide; FITC-labeled PGC1β peptide
- Kd (CBP80/CBP20 complex [3]): 47 µM

B4: Biot-PGC1β (Biot-Ahx-SGG-AMDFDSLLKEAQQSLH-NH2) (peptide)
peptide: {Biotin-Ahx}-SGGAMDFDSLLKEAQQSLH-NH2
SMILES: CSCC[C@H](NC(=O)[C@H](C)NC(=O)CNC(=O)CNC(=O)[C@H](CO)NC(=O)CCCCCNC(=O)CCCC[C@@H]1SC[C@@H]2NC(=O)N[C@@H]21)C(=O)N[C@@H](CC(=O)O)C(=O)N[C@@H](Cc1ccccc1)C(=O)N[C@@H](CC(=O)O)C(=O)N[C@@H](CO)C(=O)N[C@@H](CC(C)C)C(=O)N[C@@H](CC(C)C)C(=O)N[C@@H](CCCCN)C(=O)N[C@@H](CCC(=O)O)C(=O)N[C@@H](C)C(=O)N[C@@H](CCC(N)=O)C(=O)N[C@@H](CCC(N)=O)C(=O)N[C@@H](CO)C(=O)N[C@@H](CC(C)C)C(=O)N[C@@H](Cc1c[nH]cn1)C(N)=O
notes: also called Biot-PGC1β peptide; biotinylated version of the PGC1β peptide
- IC50 (CBP80/CBP20 complex [4]): 31 µM
- IC50 (CBP80/CBP20 complex [2]): 35 µM
